From publication PMC12218935, “Opposing role of phagocytic receptors MERTK and AXL in Progranulin deficient FTD” (Communications Biology, 2025)

T1: Fc-Mer (MERTK Fc chimera) (human, UniProt Q12866 21-505)
T1 chain: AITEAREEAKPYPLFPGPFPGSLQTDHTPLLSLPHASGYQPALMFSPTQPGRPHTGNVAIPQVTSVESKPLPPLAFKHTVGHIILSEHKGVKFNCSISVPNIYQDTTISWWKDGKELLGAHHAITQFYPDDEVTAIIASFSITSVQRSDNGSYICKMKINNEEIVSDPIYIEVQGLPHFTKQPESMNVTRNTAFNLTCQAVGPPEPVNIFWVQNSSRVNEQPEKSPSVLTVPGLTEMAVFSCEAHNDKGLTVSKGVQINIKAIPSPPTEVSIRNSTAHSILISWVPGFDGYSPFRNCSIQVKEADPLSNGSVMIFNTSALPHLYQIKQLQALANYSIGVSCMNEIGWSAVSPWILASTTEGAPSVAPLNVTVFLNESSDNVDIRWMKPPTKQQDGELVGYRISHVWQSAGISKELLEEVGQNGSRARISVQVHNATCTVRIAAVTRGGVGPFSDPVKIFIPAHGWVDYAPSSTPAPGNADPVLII

T2: Gas6, recombinant human, His-tagged (human, UniProt Q14393 31-678)
T2 construct: human GAS6, recombinant, bought from R&D Systems; Limits and the end of the tag are in the vendor's data sheet; also called H6-tagged-GAS6; source: bought: R&D Systems (885-GSB-050)
T2 sequence (looked up): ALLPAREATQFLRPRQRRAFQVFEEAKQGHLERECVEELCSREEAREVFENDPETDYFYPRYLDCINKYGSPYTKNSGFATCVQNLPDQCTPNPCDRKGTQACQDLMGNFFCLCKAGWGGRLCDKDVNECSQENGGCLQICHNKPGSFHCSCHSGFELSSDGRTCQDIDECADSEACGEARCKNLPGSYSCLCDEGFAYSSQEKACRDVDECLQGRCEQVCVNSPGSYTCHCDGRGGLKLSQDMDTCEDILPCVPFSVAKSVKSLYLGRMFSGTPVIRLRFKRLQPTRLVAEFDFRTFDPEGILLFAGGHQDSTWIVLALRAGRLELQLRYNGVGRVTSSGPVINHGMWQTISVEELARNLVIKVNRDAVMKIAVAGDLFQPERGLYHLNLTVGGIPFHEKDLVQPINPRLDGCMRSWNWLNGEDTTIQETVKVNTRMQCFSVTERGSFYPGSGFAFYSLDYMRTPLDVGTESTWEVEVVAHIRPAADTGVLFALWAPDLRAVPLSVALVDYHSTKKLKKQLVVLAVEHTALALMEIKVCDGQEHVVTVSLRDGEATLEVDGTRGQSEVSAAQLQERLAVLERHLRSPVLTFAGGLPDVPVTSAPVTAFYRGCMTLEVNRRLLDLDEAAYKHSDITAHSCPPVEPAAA


How the values were obtained:
[1] = molecular target: T1, Fc-Mer (MERTK Fc chimera); experiment: SPR
[2] = molecular target: T2, Gas6, recombinant human, His-tagged; experiment: SPR; Biacore T200, CM5 chip; Protein A amine-coupled (2300 RU), Fc-Mer (150 RU) or Fc-Axl (140 RU) captured; Gas6 or PGRN injected at 20 uL/min for 500 s, 1000 s dissociation; HBS-EP+ with 1.5 mM CaCl2 and 0.1% BSA; 1:1 kinetic model; settings: both partners purified

Row | koff [1] [s⁻¹] | Kd [2] [nM] | Binder
1 | 0.000888 |  | Gas6, recombinant human, His-tagged (ligand) ALLPAREATQFLRPRQRRAFQVFEEAKQGHLERECVEELCSREEAREVFENDPETDYFYPRYLDCINKYGSPYTKNSGFATCVQNLPDQCTPNPCDRKGTQACQDLMGNFFCLCKAGWGGRLCDKDVNECSQENGGCLQICHNKPGSFHCSCHSGFELSSDGRTCQDIDECADSEACGEARCKNLPGSYSCLCDEGFAYSSQEKACRDVDECLQGRCEQVCVNSPGSYTCHCDGRGGLKLSQDMDTCEDILPCVPFSVAKSVKSLYLGRMFSGTPVIRLRFKRLQPTRLVAEFDFRTFDPEGILLFAGGHQDSTWIVLALRAGRLELQLRYNGVGRVTSSGPVINHGMWQTISVEELARNLVIKVNRDAVMKIAVAGDLFQPERGLYHLNLTVGGIPFHEKDLVQPINPRLDGCMRSWNWLNGEDTTIQETVKVNTRMQCFSVTERGSFYPGSGFAFYSLDYMRTPLDVGTESTWEVEVVAHIRPAADTGVLFALWAPDLRAVPLSVALVDYHSTKKLKKQLVVLAVEHTALALMEIKVCDGQEHVVTVSLRDGEATLEVDGTRGQSEVSAAQLQERLAVLERHLRSPVLTFAGGLPDVPVTSAPVTAFYRGCMTLEVNRRLLDLDEAAYKHSDITAHSCPPVEPAAA
2 |  | 27.7 | Fc-Mer (MERTK Fc chimera) (Fc fusion, human, UniProt Q12866 21-505, looked up, human MERTK (Mer) part of the bought Fc chimera; Captured on Protein A by its Fc; As far as I recall the vendor's product is the extracellular domain of human Mer fused to human IgG1 Fc at the C-terminus; limits are in the vendor's data sheet; source: bought: R&D Systems (891-MR-100)) AITEAREEAKPYPLFPGPFPGSLQTDHTPLLSLPHASGYQPALMFSPTQPGRPHTGNVAIPQVTSVESKPLPPLAFKHTVGHIILSEHKGVKFNCSISVPNIYQDTTISWWKDGKELLGAHHAITQFYPDDEVTAIIASFSITSVQRSDNGSYICKMKINNEEIVSDPIYIEVQGLPHFTKQPESMNVTRNTAFNLTCQAVGPPEPVNIFWVQNSSRVNEQPEKSPSVLTVPGLTEMAVFSCEAHNDKGLTVSKGVQINIKAIPSPPTEVSIRNSTAHSILISWVPGFDGYSPFRNCSIQVKEADPLSNGSVMIFNTSALPHLYQIKQLQALANYSIGVSCMNEIGWSAVSPWILASTTEGAPSVAPLNVTVFLNESSDNVDIRWMKPPTKQQDGELVGYRISHVWQSAGISKELLEEVGQNGSRARISVQVHNATCTVRIAAVTRGGVGPFSDPVKIFIPAHGWVDYAPSSTPAPGNADPVLII
